Measurements published in PMC7983153 (The Biochemical journal, 2018).
One block for each compound: values may come before it.

Experiments:
[1] = molecular target: MtTSPS-R37E mutant (Medicago truncatula); test: SEC
[2] = molecular target: thermospermine synthase from Medicago truncatula (MtTSPS) (Medicago truncatula); test: SAXS
[3] = molecular target: thermospermine synthase from Medicago truncatula (MtTSPS) (Medicago truncatula); test: crystal structure
[4] = molecular target: MtTSPS (Medicago truncatula, UniProt G7K2D1); test: X-ray crystallography, […] Å; details: co-crystallization, 10-molar excess of ligand, pH 6.5; polyamine-binding groove

- stoichiometry N [1]: 2
Compound: MtTSPS-R37E mutant (enzyme)

- stoichiometry N [2]: 4
- stoichiometry N [3]: 4
Compound: thermospermine synthase from Medicago truncatula (MtTSPS) (enzyme)

Compound: NCCCCNCCCNCCCN [TSPM, thermospermine]
- X-ray crystallography, 1.65 Å [4]: TSPM in the MtTSPS-TSPM complex is bound with aminopropyl group pointing outside the pocket
